Patent publication US20080181903A1, “CONJUGATE OF NATRIURETIC PEPTIDE AND ANTIBODY CONSTANT REGION” (PDL BioPharma, Inc., priority 2006, published 2008)

T1: purified NPR-A-Fc fusion protein (extracellular domain of the receptor NPR-A) (Homo sapiens, UniProt P16066)
T1 construct: Expression construct encoding for the extracellular domain of the receptor NPR-A fused to the DNA encoding for the Fc domain of human immunoglobulin; made in house
T1 sequence (P16066 33-473 limits assumed): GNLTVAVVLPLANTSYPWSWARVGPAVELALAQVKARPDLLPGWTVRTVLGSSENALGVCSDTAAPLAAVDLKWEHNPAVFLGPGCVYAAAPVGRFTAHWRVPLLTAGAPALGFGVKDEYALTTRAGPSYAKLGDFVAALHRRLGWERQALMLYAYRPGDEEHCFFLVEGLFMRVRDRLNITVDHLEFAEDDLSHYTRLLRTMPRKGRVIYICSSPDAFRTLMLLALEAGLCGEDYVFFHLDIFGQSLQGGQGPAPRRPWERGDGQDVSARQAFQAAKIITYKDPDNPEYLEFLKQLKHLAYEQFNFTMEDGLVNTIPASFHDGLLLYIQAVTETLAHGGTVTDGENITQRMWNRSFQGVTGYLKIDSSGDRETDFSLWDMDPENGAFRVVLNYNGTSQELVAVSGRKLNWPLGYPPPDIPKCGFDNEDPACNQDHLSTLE

T2: NPR-A receptor (Homo sapiens, UniProt P16066)
T2 construct: expressed in transfected cells; host or cells: mammalian tissue culture cells (e.g., 3T12 cells)
T2 sequence (P16066 33-1061): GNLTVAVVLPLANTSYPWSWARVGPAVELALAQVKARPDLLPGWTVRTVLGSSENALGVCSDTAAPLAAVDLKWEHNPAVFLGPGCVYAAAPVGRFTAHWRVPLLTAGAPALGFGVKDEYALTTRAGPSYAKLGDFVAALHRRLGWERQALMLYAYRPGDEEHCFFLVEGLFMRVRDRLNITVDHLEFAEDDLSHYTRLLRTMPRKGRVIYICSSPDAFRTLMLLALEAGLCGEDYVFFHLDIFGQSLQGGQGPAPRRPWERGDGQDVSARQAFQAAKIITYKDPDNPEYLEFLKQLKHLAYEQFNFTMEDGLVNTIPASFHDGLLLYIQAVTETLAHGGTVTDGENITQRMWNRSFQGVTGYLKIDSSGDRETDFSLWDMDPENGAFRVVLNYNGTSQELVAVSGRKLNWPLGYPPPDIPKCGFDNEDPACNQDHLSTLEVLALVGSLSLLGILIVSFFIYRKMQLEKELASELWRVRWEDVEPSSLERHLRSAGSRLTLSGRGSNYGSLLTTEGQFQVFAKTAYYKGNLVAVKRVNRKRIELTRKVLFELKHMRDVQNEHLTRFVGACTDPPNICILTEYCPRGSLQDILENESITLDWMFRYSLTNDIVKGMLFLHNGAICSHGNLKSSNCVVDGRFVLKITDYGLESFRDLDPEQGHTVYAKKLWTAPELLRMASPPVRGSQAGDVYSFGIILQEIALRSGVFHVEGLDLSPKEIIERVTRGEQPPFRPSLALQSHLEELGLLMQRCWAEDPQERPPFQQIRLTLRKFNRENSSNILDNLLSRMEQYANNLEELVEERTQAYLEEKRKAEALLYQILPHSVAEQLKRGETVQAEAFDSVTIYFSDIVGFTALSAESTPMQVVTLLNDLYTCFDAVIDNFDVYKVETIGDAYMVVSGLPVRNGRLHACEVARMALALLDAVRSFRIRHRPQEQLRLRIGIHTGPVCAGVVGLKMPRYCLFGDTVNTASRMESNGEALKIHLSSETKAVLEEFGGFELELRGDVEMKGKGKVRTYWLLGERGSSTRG


Tests used:
[1] = molecular target: NPR-A receptor expressed on transfected cells; experiment: cell-based or functional assay
[2] = molecular target: NPR-A-Fc receptor fusion protein (human); experiment: SPR (BIAcore), NPR-A-Fc captured by anti-human Fc, analyte injected, 1:1 Langmuir fit
[3] = molecular target: NPR-A-Fc receptor fusion protein (human); experiment: BIAcore surface plasmon resonance; NPR-A-Fc captured by immobilized goat anti-human Fc gamma antibody, analyte injected; 1:1 Langmuir fit
[4] = molecular target: NPR-A-Fc receptor fusion protein (human); experiment: SPR (BIAcore), NPR-A-Fc captured by anti-human Fc, analyte injected, 1:1 Langmuir fit; experiment with Fc-Uro
[5] = molecular target: NPR-A-Fc receptor fusion protein (human); experiment: SPR (BIAcore), NPR-A-Fc captured by anti-human Fc, analyte injected, 1:1 Langmuir fit; experiment with Uro-Fc
[6] = molecular target: T1, purified NPR-A-Fc fusion protein (extracellular domain of the receptor NPR-A); experiment: BIAcore natriuretic peptide receptor (NPR) binding assay; conditions: Fc-Uro vs ularitide comparison (FIG. 2B), n=6, read-out: Binding affinities (KD) on the NPR-A receptor
Experimental: Kinetics measurements for analytes resulting in estimates of binding affinity constants (KD) were performed using BIAcore 2000 & 3000 instruments and methods recommended by the manufacturer (BIAcore, Sweden). […] Purified NPR-A-Fc receptor fusion proteins were captured by goat anti-human Fcγ (GAHFc) antibodies (Jackson ImmunoResearch, Cat 109-005-098) immobilized onto the sensorchip surface. The unoccupied GAHFc after the capture was shielded from analytes by the injection of human Fc (huFc, Jackson ImmunoResearch, Cat 009-000-008). Analytes were injected to obtain an association phase followed by injection of HBS-P running buffer (10 mM HEPES, 150 mM sodium chloride, 0.005% P-20 surfactant, pH 7.4) to monitor dissociation for each binding cycle.
The binding kinetics of each analyte-receptor pair was calculated from a global analysis of sensorgram data collected from different analyte concentrations using the BIAevaluate program (BIAcore, Sweden). The affinity (KD) resulting from association (ka) and dissociation (kd) of each analyte against each receptor was obtained by simultaneously fitting the association and dissociation phases of the sensorgram from the analyte concentration series using the same 1:1 Langmuir model from the BIAevaluate software (BIAcore, Sweden).

NPR-A receptor = molecular target: T2, NPR-A receptor; experiment: NPR-A receptor activation, intracellular cGMP in transfected cells; assay type: cell-based; conditions: cells expressing NPR-A; Fc-Uro vs ularitide (FIG. 3B); read-out: EC50 of cGMP induction
Experimental: NPR-A receptor activation by test compounds was determined by incubation with mammalian cells transfected with expression vector DNA encoding for the NPR-A receptor and measuring the amount of cGMP generated in these cells.
Mammalian tissue culture cells (e.g., 3T12 cells) transfected with expression vector DNA encoding for the NPR-A were cultured in 96-well microtiter plates for 18-20 hours (˜50,000 cells/well) using standard tissue culture conditions. The tissue culture medium was then changed to serum-free medium, cells were pre-incubated with 1 mM IBMX for 30 minutes and treated with various concentrations of test compounds for 10 minutes. Cells were then lysed with 0.2 ml/well of 0.1 M HCl for 20 min, and lysates centrifuged at 1000×g for 2 min. The cGMP in the supernatants was determined using a commercial kit (Direct cGMP EIA Kit, Assay Designs, Inc., Cat#901-014) according to the manufacturer's instructions.

Molecule	intracellular cGMP levels, EC50 [1] [nM]	Kd [2] [nM]	Kd [3] [nM]	Kd [4] [nM]	Kd [5] [nM]	Kd [6] [nM]	EC50 (NPR-A receptor) [nM]
Uro-Fc(huFcG1(m1)) fusion protein (Fc fusion)	26.3	7000	0.007	–	–	–	–
Fc-Uro(huFcG1(m1)): fusion protein: Fc portion of variant human immunoglobulin heavy constant gamma 1 at amino terminus and human urodilatin at carboxy terminus (protein) DKTHTCPPCPAPEAEGAPSVFLFPPKPKDTLMISRTPEVTCVVVDVSHEDPEVKFNWYVDGVEVHNAKTKPREEQYNSTYRVVSVLTVLHQDWLNGKEYKCKVSNKALPAPIEKTISKAKGQPREPQVYTLPPSRQELTKNQVSLTCLVKGFYPSDIAVEWESNGQPENNYKTTPPVLDSDGSFFLYSKLTVDKSRWQQGNVFSCSVMHEALHNHYTQKSLSLSPGKTAPRSLRRSSCFGGRMDRIGAQSGLGCNSFRY	–	–	–	–	–	0.35 ± 0.1	86

The next lines start with the values.

intracellular cGMP levels, EC50 [1] [nM]	Kd [2] [nM]	Kd [3] [nM]	Kd [4] [nM]	Kd [5] [nM]	Kd [6] [nM]	EC50 (NPR-A receptor) [nM]	Molecule
86	0.35	–	–	–	–	–	Fc-Uro(huFcG1(m1)) fusion protein (from UniProt P01857 104-330) (Fc fusion)
–	–	0.0031	0.0042	3100	–	–	ularitide (peptide)
